Assay results published in patent publication US20130029395.

Target: octadecenoyl-ACP

B1: Synechococcus elongatus PCC7942 YP-400611 (Synpcc7942-1594) protein with C-terminal His-tag (protein)
chain: MFGLIGHLTSLEQARDVSRRMGYDEYADQGLEFWSSAPPQIVDEITVTSATGKVIHGRYIESCFLPEMLAARRFKTATRKVLNAMSHAQKHGIDISALGGFTSIIFENFDLASLRQVRDTTLEFERFTTGNTHTAYVICRQVEAAAKTLGIDITQATVAVVGATGDIGSAVCRWLDLKLGVGDLILTARNQERLDNLQAELGRGKILPLEAALPEADFIVWVASMPQGVVIDPATLKQPCVLIDGGYPKNLGSKVQGEGIYVLNGGVVEHCFDIDWQIMSAAEMARPERQMFACFAEAMLLEFEGWHTNFSWGRNQITIEKMEAIGEASVRHGFQPLALAI
  Km for the reduction of octadecenoyl-ACP in the presence of 2 mM NADPH: 7.8 ± 2 µM
